Biological target: T1, TRAIL-R2/Fc fusion protein (R & D Systems) (UniProt O14763 54-182, limits assumed)
T1 construct: not shown: Fc part of the bought fusion; captured with anti-human IgG Fc antibody
Assay: biosensor, TRAIL-R2-Fc fusion protein immobilized; mono-, bi- and tetravalent D1 constructs injected
Description: FIG. 19. Binding affinity of Tn3 monomers and multimers. Depicted in this panel are sensorgrams from a Biosensor binding experiment using mono-, bi- and tetravalent 1C12 and D1 Tn3 constructs. TRAIL-R2-Fc fusion protein was immobilized on a sensor chip while sample proteins were injected over the chip. “tetra” refers to the tetravalent Cκ/IGHG1 fusion constructs.
A qualitative comparison of binding by monomeric 1C12, 1C12-Fc and 1C12-Cκ/1C12-IGHG1 proteins was performed by injecting samples of each of these proteins over a TRAIL-R2 chip on an Attana biosensor instrument.

T1 sequence (O14763 54-182 limits assumed): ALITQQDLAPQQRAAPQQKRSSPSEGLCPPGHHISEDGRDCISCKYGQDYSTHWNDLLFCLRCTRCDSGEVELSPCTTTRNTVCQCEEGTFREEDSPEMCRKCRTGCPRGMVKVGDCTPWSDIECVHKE

B1: D1 (designed binder)
chain: IEVKDVTDTTALITWSPGERIWMFTGCELTYGIKDVPGDRTTIDLTEDENQYSIGNLKPDTEYEVSLICPNYERISNPAKETFTT
  binding result: no binding
